In article PMC8282039 one finds Kd data, which are given here for one substance.

The target in the experiment is CDY14HL-Fc4 (human) (UniProt Q9BYF1). The experiment can be described thus: SPR. For orientation: SPR reads the build-up and loss of mass on a sensor chip optically.

The substance “SARS-CoV-2 receptor binding domain (RBD), Wuhan (from UniProt P0DTC2 330-530) (domain or fragment)” gave a Kd of 0.031 nM.

A word on the Kd: it is a measure of binding affinity in units of concentration. High values mean a looser complex, low ones a tighter complex.
